Test results taken from the RNAGym collection of RNA variant scans (doi:10.1073/pnas.2313332121).

B1: TPR t1 (parent)
chain: GACCAAUCUGCCCUCAGAGCUCGAGAACAUCUUCGGAUGCAGAGGAGGCAGGCUUCGGUGGCGCGAUAGCGCCAACGUCCUCAACCUCCAAUGCAUCCCACCACAUGAUGAUGCCUGAAGAGCCUUGGUUUUUUG

Variants of: B1
Test: polymerase ribozyme fitness, log enrichment relative to wild type (log ratio); higher = more active; in vitro selection for triplet polymerase activity
Outline: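 After PCR construction and transcription, each subunit's mutant library from a heterodimeric triplet polymerase ribozyme was annealed with a biotinylated primer, the partner subunit and triplets. Incubation was frozen, at −7 °C, and extended constructs were gel-excised, bound to streptavidin beads and amplified by RT-PCR, in one selection round done in triplicate. Fitness is the logarithm of a genotype's enrichment divided by that of the wild type, from inverse-variance-weighted replicate averages of Illumina-sequenced inputs and outputs. The base of the logarithm is 2, and genotypes needed ≥10 input reads and ≥1 read per output.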

Variant	polymerase ribozyme fitness (log ratio)
GACCAAUCUGCCCUCAGAGCUCGAGAACAUCUUCGGAUGCAGAGAAGGCAGGCUUCGGUGGCGCGAUAGCGCCAACGUCCUCACCCUCCAAUGCAUCCCACCACAUGAUGAUGCCUGAACAGCCUUGGUUUUUUA	0.21
GACCAAUCUGCCCUCAGAGCUCGAGAACAUCUUCGGAUGCAGAGAAGGCCGGCUUCGGUGGCACGAUAGCGCCAACGUCCUGAACCUCCAAUGCAUCCCACCACAUGAUGAUGCCUCAAGAGCCUUGGUUUUUUG	-6.01
GACCAAUCUGCCCUCAGAGCUCGAGAACAUCUUCGGAUGCAGAUGAGGCAGGCUUCGGUGGCGCGAUAGCGCCAACGUCCUCAACCUCCAAUGCAACCCACCACAUGAUGAUGCCGGAAGAGCCUUGGUUUUUUG	-3.66
GACCAAUCUGCCCUCAGAGCUCGAGAACAUCUUCGGAUGCAGAGAAGGAAGGCUUCGGUGGCGCGAUAGCGCCAACGUCCUCAACCUCCAAUGCAUCCCACCACAUGAUUAUGCCUGAAGAGCCUUGGUUUUUUG	-2.18
GACCAAUCUGCCCUCAGAGCUCGAGAACAUCUUCGGAUGCAGAGAAGGAAGGCUUCGGUGGCGCGAUAGCGCCAACGUCCUCAACCUCCAAUGUAUCCCACCACAUGAUAAUGCCUGAAGAGCGUUGGUUUUUUG	-1.89
GACCAAUCUGCCCUCAGAGCUCGAGAACAUCUUCGGAUGCAGAUGAGGCAGGCUUCGGGGGCGCGAUAGCGCCAACGUCCUCAACCUCCAAUGCAUCCCACCACAUGAUGAUGCCUGAAAAGCCUUGGUUUUUUG	0.601
GACCAAUCUGCCCUCAGAGCUCGAGAACAUCUUCGGAUGCAGAUGAGGCAGGCUUCGGGGGCGCGAUAGCGCCAACGUCCUCAACCUCCAAUGCAUCCCACCACAUGAUGAUGCCUGAAGAGCCUUGGUUUUUUG	-0.461
GACCAAUCUGCCCUCAGAGCUCGAGAACAUCUUCGGAUGCAGAGAAGGCAGGCUUCGGUGGCGCGAUAGCGCCAACGUCCUCAACCUCCAAUGCAUCCCACCACAUGAUGAUGCCUGGAGAGCCUUGGUUUUUUG	-1.02
GACCAAUCUGCCCUCAGAGCUCGAGAACAUCUUCGGAUGCAGAUGAGGCAGGCUUCGGUGGCGCGAUAGCGCCAACGUCCUCAACCUCCAAUGCACCCCACCACAUGAUGAUGCCUGAAAAACCUUGGGUUUUUG	-2.51
GACCAAUCUGCCCUCAGAGCUCGAGAACAUCUUCGGAUGCAGAUGAGGCAGGCUUCGGCGGCGCGAUAGCGCCAACGUCCUCAACCUCCAAUGCAUCCCACCACAUGAUAAUGCCUGAAGAGCCUUAGUUUAUUG	-4.19
GACCAAUCUGCCCUCAGAGCUCGAGAACAUCUUCGGAUGCAGAGAAGGCAGGAUUCGGUGGCGCGAUAGCGCCAACGUCCUCAACAUCCAAUGCAUCCCACCACAUGAUGAUGCCUGAAGAGCCUUGGUUUUAUG	-1.69
GACCAAUCUGCCCUCAGAGCUCGAGAACAUCUUCGGAUGCAGAUGAGGCAGGCUUCGGUGGCGCGAUAGCGCCAACGUCCUCAACCUCCAAUGCAACCCACCACAUGAUGAUGCCUGAAGAGCCUUGGUUUUUUG	-2.64
GACCAAUCUGCCCUCAGAGCUCGAGAACAUCUUCGGAUGCAGAGAAGGCUGGCUUCGGUGGCGCGAUAGCGCCAACGUCCUCAACCUCCAAUGCAUCCCACCACAUGAUGAUGCCUGAAGAGCCUUGGUUUUUUG	-1.05
GACCAAUCUGCCCUCAGAGCUCGAGAACAUCUUCGGAUGCAGAGAAGGCAGGCUUCGGUGGCGCGAUAGCGCCAACGUCCUCACCCUCCAAUGCAUCCCACCACAUGAUGAUGCCUGAAGAGCCUUGGUUUUUUG	-0.717
GACCAAUCUGCCCUCAGAGCUCGAGAACAUCUUCGGAUGCAGAGAAGGCAGGCUUCGGUGGCGCGAUAGCGCCAACGUCCUCAACCUCCAAUGCAUCCCACCUCAUGAUGAUGCCUGAAGAGCCUUGGUUUUUUG	-7.16
GACCAAUCUGCCCUCAGAGCUCGAGAACAUCUUCGGAUGCAGAUGAGGCAGGCUACGGUGGCGCGAUAGCGCCAACGUCCUCAACCUCCAAUGCAUCCCACCACAUGAUGAUGCCUGAAGAGCCUUGGUUUUUUG	-0.917
GACCAAUCUGCCCUCAGAGCUCGAGAACAUCUUCGGAUGCAGAGAAGGAAGGCUUCGGUGGCGCGAUAGCGGCAACGUCCUCAACCUCCAAUGCAUCCCACCACAUGAUGAUGCCUGAAGAGCCUUGAUUUUUUG	-3.14
GACCAAUCUGCCCUCAGAGCUCGAGAACAUCUUCGGAUGCAGAGAAGGCUGGCUUCGGUGGCGCGAUAGCGCCAACGUCCUCAACCUCCAAUGCAUCCCACCACAUGAUGAUGCCUGAAGAGCUGUGGUUUUUUG	-0.0022
GACCAAUCUGCCCUCAGAGCUCGAGAACAUCUUCGGAUGCAGAGAAGGCAGGCUUCGGUGGCGCGAUAGCGCCAACGUCCUCAACCUCCAAUGCAUCCCACCACAUGAUGAUGCCUGAGGAGCCUUGGUUUUUUG	0.105
GACCAAUCUGCCCUCAGAGCUCGAGAACAUCUUCGGAUGCAGAGAUGGCAGGCUCCGGUGGCGCGAUAGCGCCAACGUCCUCAACCUCUAAUGCAUCCCACCACAUGAUGAUGCCUGAAGAGCCUUGGUUAUUUG	-0.91
GACCAAUCUGCCCUCAGAGCUCGAGAACAUCUUCGGAUGCAGAGAAGGCAGGCUUCGGUGGCGCGAUAGCGCCAACGUCCUCAACCUCCAAUGCAUCCCACCACAUGAUGGUGACUGAAGAGCCUUGGUUUUUUG	-5.79
